Assays:
[1] = biological target: CD47 on the CD47-overexpressing breast cancer cell line MCF-7 (UniProt Q08722); assay: flow cytometry on MCF-7 cells, secondary antibody alone (background control)
[2] = biological target: T1, CD47 on the CD47-overexpressing breast cancer cell line MCF-7 (UniProt Q08722 19-323, limits assumed); assay: flow cytometry on MCF-7 cells, 1 µg antibody
T1 construct: whole, on cells; Endogenous CD47 on MCF-7 cells; The positive control used on these cells is an anti-human CD47 antibody; also called CD47 overexpressing tumor cells (MCF-7); MCF-7 cells expressing CD47
T1 sequence (Q08722 19-323 limits assumed): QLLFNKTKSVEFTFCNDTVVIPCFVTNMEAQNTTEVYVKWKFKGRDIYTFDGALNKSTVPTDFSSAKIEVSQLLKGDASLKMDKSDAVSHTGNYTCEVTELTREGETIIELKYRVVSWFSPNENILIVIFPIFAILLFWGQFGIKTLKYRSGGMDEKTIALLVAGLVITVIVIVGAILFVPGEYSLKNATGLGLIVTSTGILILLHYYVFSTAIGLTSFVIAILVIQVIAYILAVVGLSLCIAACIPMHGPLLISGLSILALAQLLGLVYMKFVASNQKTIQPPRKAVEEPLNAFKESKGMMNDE

[3] = biological target: CD47 protein (Acrobiosystems, cat#CD7-HA2E9) (UniProt Q08722); assay: ELISA, CD47 protein coated 100 ng/well, 0.8 µg antibody per well
Sequence of CD47 protein (Acrobiosystems, cat#CD7-HA2E9) (Q08722 19-139 limits assumed): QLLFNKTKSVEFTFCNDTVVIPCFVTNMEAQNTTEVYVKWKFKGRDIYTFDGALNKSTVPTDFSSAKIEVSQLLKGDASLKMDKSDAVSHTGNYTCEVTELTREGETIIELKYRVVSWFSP

Sequence of CD47 on the CD47-overexpressing breast cancer cell line MCF-7 (UniProt Q08722) (Q08722 19-323 limits assumed): as the sequence (Q08722 19-323 limits assumed) above

Row | Molecule | Mean (fluorescence) [1] | Median (fluorescence) [1] | binding result [2] | OD450 measurements [3] [OD450]
1 | PE-conjugated goat anti-mouse IgG antibody (Biolegend Inc., cat# 405307) | 80 | 73.9 | – | –
2 | Hu3A5 (V11) antibody (antibody, V domains shown, Humanized 3A5) VH: EVQLVQSGSELKKPGASVKVSCKASGYTFTSYWMHWMRQAPGQGLEWIGVIDPSDSYTSYNQGFTGRFVLSVDTSVSTAYLQISSLKAEDTAVYYCARGGKRAMDYWGQGTTVTVSS VL: DVVMTQSPDSLAVSLGERATINCKSSQSLVHSNGNTYLHWYQQKPGQPPKLLIYKVSNRFSGVPDRFSGSGSGTDFTLTISSLQAEDVAVYFCSQSTHVPFTFGGGTKLEIK | – | – | binds | 2.81
3 | Hu3A5 (V16) antibody (antibody, V domains shown, Humanized 3A5) VH: QVQLVQSGSELKKPGASVKVSCKASGYTFTSYWMNWVRQAPGQGLEWMGVIDPSDSYTSYNQGFTGRFVFSVDTSVSTAYLQISSLKAEDTAVYYCARGGKRAMDYWGQGTTVTVSS VL: DVVMTQSPDSLAVSLGERATINCKSSQSLVHSNGNTYLHWYQQKPGQPPKLLIYKVSNRFSGVPDRFSGSGSGTDFTLTISSLQAEDVAVYYCSQSTHVPFTFGGGTKLEIK | – | – | binds | 0.106
4 | Hu3A5 (V15) antibody (antibody, V domains shown, Humanized 3A5) VH: QVQLVQSGSELKKPGASVKVSCKASGYTFTSYWMNWVRQAPGQGLEWMGVIDPSDSYTSYNQGFTGRFVFSVDTSVSTAYLQISSLKAEDTAVYYCARGGKRAMDYWGQGTTVTVSS VL: DVVMTQSPDSLAVSLGERATINCKSSQSLVHSNGNTYLHWYQQKPGQPPKLLIYKVSNRFSGVPDRFSGSGSGTDFTLTISSLQAEDVAVYFCSQSTHVPFTFGGGTKLEIK | – | – | binds | 0.111
5 | Hu3A5 (V12) antibody (antibody, V domains shown, Humanized 3A5) VH: EVQLVQSGSELKKPGASVKVSCKASGYTFTSYWMHWMRQAPGQGLEWIGVIDPSDSYTSYNQGFTGRFVLSVDTSVSTAYLQISSLKAEDTAVYYCARGGKRAMDYWGQGTTVTVSS VL: DVVMTQSPDSLAVSLGERATINCKSSQSLVHSNGNTYLHWYQQKPGQPPKLLIYKVSNRFSGVPDRFSGSGSGTDFTLTISSLQAEDVAVYYCSQSTHVPFTFGGGTKLEIK | – | – | binds | 2.85
6 | Hu3A5 (V1) antibody (antibody, V domains shown, Humanized 3A5) VH: EVQLVQSGAEVKKPGASVKVSCKASGYTFTSYWMHWMRQAPGQGLEWIGVIDPSDSYTSYNQKFQGRVTLTVDTSTSTAYMELSSLRSEDTAVYYCARGGKRAMDYWGQGTTVTVSS VL: DVVMTQSPLSLPVTLGQPASISCRSSQSLVHSNGNTYLHWFQQRPGQSPRLLIYKVSNRFSGVPDRFSGSGSGTDFTLKISRVEAEDVGVYFCSQSTHVPFTFGGGTKLEIK | – | – | binds | 2.58
7 | Hu3A5 (V9) antibody (antibody, V domains shown, Humanized 3A5) VH: EVQLVQSGSELKKPGASVKVSCKASGYTFTSYWMHWMRQAPGQGLEWIGVIDPSDSYTSYNQGFTGRFVLSVDTSVSTAYLQISSLKAEDTAVYYCARGGKRAMDYWGQGTTVTVSS VL: DVVMTQSPLSLPVTLGQPASISCRSSQSLVHSNGNTYLHWFQQRPGQSPRLLIYKVSNRFSGVPDRFSGSGSGTDFTLKISRVEAEDVGVYFCSQSTHVPFTFGGGTKLEIK | – | – | binds | 2.65
8 | Hu3A5 (V3) antibody (antibody, V domains shown, Humanized 3A5) VH: EVQLVQSGAEVKKPGASVKVSCKASGYTFTSYWMHWMRQAPGQGLEWIGVIDPSDSYTSYNQKFQGRVTLTVDTSTSTAYMELSSLRSEDTAVYYCARGGKRAMDYWGQGTTVTVSS VL: DVVMTQSPDSLAVSLGERATINCKSSQSLVHSNGNTYLHWYQQKPGQPPKLLIYKVSNRFSGVPDRFSGSGSGTDFTLTISSLQAEDVAVYFCSQSTHVPFTFGGGTKLEIK | – | – | binds | 2.54
9 | Hu3A5 (V10) antibody (antibody, V domains shown) VH: EVQLVQSGSELKKPGASVKVSCKASGYTFTSYWMHWMRQAPGQGLEWIGVIDPSDSYTSYNQGFTGRFVLSVDTSVSTAYLQISSLKAEDTAVYYCARGGKRAMDYWGQGTTVTVSS VL: DVVMTQSPLSLPVTLGQPASISCRSSQSLVHSNGNTYLHWFQQRPGQSPRLLIYKVSNRFSGVPDRFSGSGSGTDFTLKISRVEAEDVGVYYCSQSTHVPFTFGGGTKLEIK | – | – | – | 2.81
10 | Hu3A5 (V4) antibody (antibody, V domains shown, Humanized 3A5) VH: EVQLVQSGAEVKKPGASVKVSCKASGYTFTSYWMHWMRQAPGQGLEWIGVIDPSDSYTSYNQKFQGRVTLTVDTSTSTAYMELSSLRSEDTAVYYCARGGKRAMDYWGQGTTVTVSS VL: DVVMTQSPDSLAVSLGERATINCKSSQSLVHSNGNTYLHWYQQKPGQPPKLLIYKVSNRFSGVPDRFSGSGSGTDFTLTISSLQAEDVAVYYCSQSTHVPFTFGGGTKLEIK | – | – | binds | 2.74

The next lines start with the values.

Row | Mean (fluorescence) [1] | Median (fluorescence) [1] | binding result [2] | OD450 measurements [3] [OD450] | Molecule
11 | – | – | binds | 2.69 | Hu3A5 (V2) antibody (antibody, V domains shown, Humanized 3A5) VH: EVQLVQSGAEVKKPGASVKVSCKASGYTFTSYWMHWMRQAPGQGLEWIGVIDPSDSYTSYNQKFQGRVTLTVDTSTSTAYMELSSLRSEDTAVYYCARGGKRAMDYWGQGTTVTVSS VL: DVVMTQSPLSLPVTLGQPASISCRSSQSLVHSNGNTYLHWFQQRPGQSPRLLIYKVSNRFSGVPDRFSGSGSGTDFTLKISRVEAEDVGVYYCSQSTHVPFTFGGGTKLEIK
12 | – | – | binds | 0.0966 | Hu3A5 (V13) antibody (antibody, V domains shown, Humanized 3A5) VH: QVQLVQSGSELKKPGASVKVSCKASGYTFTSYWMNWVRQAPGQGLEWMGVIDPSDSYTSYNQGFTGRFVFSVDTSVSTAYLQISSLKAEDTAVYYCARGGKRAMDYWGQGTTVTVSS VL: DVVMTQSPLSLPVTLGQPASISCRSSQSLVHSNGNTYLHWFQQRPGQSPRLLIYKVSNRFSGVPDRFSGSGSGTDFTLKISRVEAEDVGVYFCSQSTHVPFTFGGGTKLEIK
13 | – | – | binds | 0.147 | Hu3A5 (V14) antibody (antibody, V domains shown, Humanized 3A5) VH: QVQLVQSGSELKKPGASVKVSCKASGYTFTSYWMNWVRQAPGQGLEWMGVIDPSDSYTSYNQGFTGRFVFSVDTSVSTAYLQISSLKAEDTAVYYCARGGKRAMDYWGQGTTVTVSS VL: DVVMTQSPLSLPVTLGQPASISCRSSQSLVHSNGNTYLHWFQQRPGQSPRLLIYKVSNRFSGVPDRFSGSGSGTDFTLKISRVEAEDVGVYYCSQSTHVPFTFGGGTKLEIK
14 | – | – | binds | 2.57 | Hu3A5 (V5) antibody (antibody, V domains shown, Humanized 3A5) VH: QVQLVQSGAEVKKPGASVKVSCKASGYTFTSYWMHWVRQAPGQGLEWMGVIDPSDSYTSYNQKFQGRVTMTVDTSTSTAYMELSSLRSEDTAVYYCARGGKRAMDYWGQGTTVTVSS VL: DVVMTQSPLSLPVTLGQPASISCRSSQSLVHSNGNTYLHWFQQRPGQSPRLLIYKVSNRFSGVPDRFSGSGSGTDFTLKISRVEAEDVGVYFCSQSTHVPFTFGGGTKLEIK
15 | – | – | binds | 2.45 | Hu3A5 (V8) antibody (antibody, V domains shown, Humanized 3A5) VH: QVQLVQSGAEVKKPGASVKVSCKASGYTFTSYWMHWVRQAPGQGLEWMGVIDPSDSYTSYNQKFQGRVTMTVDTSTSTAYMELSSLRSEDTAVYYCARGGKRAMDYWGQGTTVTVSS VL: DVVMTQSPDSLAVSLGERATINCKSSQSLVHSNGNTYLHWYQQKPGQPPKLLIYKVSNRFSGVPDRFSGSGSGTDFTLTISSLQAEDVAVYYCSQSTHVPFTFGGGTKLEIK
16 | – | – | binds | 2.67 | Hu3A5 (V7) antibody (antibody, V domains shown, Humanized 3A5) VH: QVQLVQSGAEVKKPGASVKVSCKASGYTFTSYWMHWVRQAPGQGLEWMGVIDPSDSYTSYNQKFQGRVTMTVDTSTSTAYMELSSLRSEDTAVYYCARGGKRAMDYWGQGTTVTVSS VL: DVVMTQSPDSLAVSLGERATINCKSSQSLVHSNGNTYLHWYQQKPGQPPKLLIYKVSNRFSGVPDRFSGSGSGTDFTLTISSLQAEDVAVYFCSQSTHVPFTFGGGTKLEIK
17 | – | – | binds | 2.62 | Hu3A5 (V6) antibody (antibody, V domains shown, Humanized 3A5) VH: QVQLVQSGAEVKKPGASVKVSCKASGYTFTSYWMHWVRQAPGQGLEWMGVIDPSDSYTSYNQKFQGRVTMTVDTSTSTAYMELSSLRSEDTAVYYCARGGKRAMDYWGQGTTVTVSS VL: DVVMTQSPLSLPVTLGQPASISCRSSQSLVHSNGNTYLHWFQQRPGQSPRLLIYKVSNRFSGVPDRFSGSGSGTDFTLKISRVEAEDVGVYYCSQSTHVPFTFGGGTKLEIK

From patent EP4365197A1 (Innobation Bio Co., Ltd., dated 2024)
